Results on 3 molecules are retold here after article PMC7804450, “Structural insights into TSC complex assembly and GAP activity on Rheb” (Nature Communications, 2021).

In general, stoichiometry N refers to a count of units in the complex or per binding partner.

B1: tuberous sclerosis complex 1 (TSC1), human, subunit of the purified TSC complex (natural protein, UniProt Q92574 1-1164, looked up)
chain: MAQQANVGELLAMLDSPMLGVRDDVTAVFKENLNSDRGPMLVNTLVDYYLETSSQPALHILTTLQEPHDKHLLDRINEYVGKAATRLSILSLLGHVIRLQPSWKHKLSQAPLLPSLLKCLKMDTDVVVLTTGVLVLITMLPMIPQSGKQHLLDFFDIFGRLSSWCLKKPGHVAEVYLVHLHASVYALFHRLYGMYPCNFVSFLRSHYSMKENLETFEEVVKPMMEHVRIHPELVTGSKDHELDPRRWKRLETHDVVIECAKISLDPTEASYEDGYSVSHQISARFPHRSADVTTSPYADTQNSYGCATSTPYSTSRLMLLNMPGQLPQTLSSPSTRLITEPPQATLWSPSMVCGMTTPPTSPGNVPPDLSHPYSKVFGTTAGGKGTPLGTPATSPPPAPLCHSDDYVHISLPQATVTPPRKEERMDSARPCLHRQHHLLNDRGSEEPPGSKGSVTLSDLPGFLGDLASEEDSIEKDKEEAAISRELSEITTAEAEPVVPRGGFDSPFYRDSLPGSQRKTHSAASSSQGASVNPEPLHSSLDKLGPDTPKQAFTPIDLPCGSADESPAGDRECQTSLETSIFTPSPCKIPPPTRVGFGSGQPPPYDHLFEVALPKTAHHFVIRKTEELLKKAKGNTEEDGVPSTSPMEVLDRLIQQGADAHSKELNKLPLPSKSVDWTHFGGSPPSDEIRTLRDQLLLLHNQLLYERFKRQQHALRNRRLLRKVIKAAALEEHNAAMKDQLKLQEKDIQMWKVSLQKEQARYNQLQEQRDTMVTKLHSQIRQLQHDREEFYNQSQELQTKLEDCRNMIAELRIELKKANNKVCHTELLLSQVSQKLSNSESVQQQMEFLNRQLLVLGEVNELYLEQLQNKHSDTTKEVEMMKAAYRKELEKNRSHVLQQTQRLDTSQKRILELESHLAKKDHLLLEQKKYLEDVKLQARGQLQAAESRYEAQKRITQVFELEILDLYGRLEKDGLLKKLEEEKAEAAEAAEERLDCCNDGCSDSMVGHNEEASGHNGETKTPRPSSARGSSGSRGGGGSSSSSSELSTPEKPPHQRAGPFSSRWETTMGEASASIPTTVGSLPSSKSFLGMKARELFRNKSESQCDEDGMTSSLSESLKTELGKDLGVEAKIPLNLDGPHPSPPTPDSVGQLHIMDYNETHHEHS
notes: TSC1 (hamartin), human; ORF sub-cloned into a modified pCAG vector; Two copies (TSC1a, TSC1b) stand in the TSC complex (2:2:1); The sample for cryo-EM was cross-linked with glutaraldehyde (Grafix); also called TSC1a; TSC1b
B2: tuberous sclerosis complex 2 (TSC2), human, subunit of the purified TSC complex (natural protein)
chain: not shown
notes: TSC2 (tuberin), human; ORF sub-cloned into a modified pCAG vector; residues 127-936, 1015-1082, 1182-1245, 1494-1732 traced; Two copies (TSC2a, TSC2b) stand in the TSC complex (2:2:1); The sample for cryo-EM was cross-linked with glutaraldehyde (Grafix); also called TSC2a; TSC2b

What all share (test): cryo-EM structure; human TSC complex (TSC1, TSC2, TBC1D7) co-expressed in Expi293F, purified, cross-linked by Grafix (glutaraldehyde); single particle reconstruction, 4.4 Å overall, core 3.6 Å, wings 3.9 and 4.1 Å
For series [1], the target named is B2. Conditions: both partners purified.
Series [2] deals with the molecule itself.
Series [3] addresses B1. Conditions: both partners purified.

In the case of B1, in series [1], the binding result is “binds”.

B2: the “stoichiometry N” value in series [2] turned out to be 2.

B3: Tre2-Bub2-Cdc16-1 domain family member 7 (TBC1D7), human, subunit of the purified TSC complex (natural protein, UniProt Q9P0N9 1-293, looked up)
chain: MTEDSQRNFRSVYYEKVGFRGVEEKKSLEILLKDDRLDTEKLCTFSQRFPLPSMYRALVWKVLLGILPPHHESHAKVMMYRKEQYLDVLHALKVVRFVSDATPQAEVYLRMYQLESGKLPRSPSFPLEPDDEVFLAIAKAMEEMVEDSVDCYWITRRFVNQLNTKYRDSLPQLPKAFEQYLNLEDGRLLTHLRMCSAAPKLPYDLWFKRCFAGCLPESSLQRVWDKVVSGSCKILVFVAVEILLTFKIKVMALNSAEKITKFLENIPQDSSDAIVSKAIDLWHKHCGTPVHSS
notes: TBC1D7, human; ORF sub-cloned into a modified pCAG vector; residues 21-287 traced; One copy stands in the TSC complex (2:2:1); The sample for cryo-EM was cross-linked with glutaraldehyde (Grafix)
For B3, the binding result in series [3] is on record as “binds”.
